Source: PMC3946371

Target: Vaccinia virus D4 with non-cleavable N-terminal His-tag, co-expressed with MBP-A20(1-50) (vaccinia virus (Copenhagen strain)) (UniProt P20536)
Assay: SEC-MALS

“First 50 amino acids of vaccinia virus A20, wild type, released from MBP by TEV (from UniProt P20995 1-50) (domain or fragment)” was tested. Which stoichiometry N did it give?
The stoichiometry N was 1.
